Results on one substance are retold here after patent publication US20250057128A1, “HUMANIZED MOUSE MODELS” (The Jackson Laboratory, priority 2021, published 2025).

For this data set, the system named is NSG-SGM3×IL15 mice humanized with human PBMCs. The data set is described as follows: Cytokine release syndrome (CRS) induction in PBMC-humanized mice, serum cytokine levels. The class given is in vivo, mouse. An excerpt:
FIGS. 9A-9C show comparisons of TNF (FIG. 9A), IL-6 (FIG. 9B), and IL-2 (FIG. 9C) levels in NSG-SGM3 mice and NSG-SGM3×IL15 mice engrafted with 5×10^6 human PBMCs per mouse.
FIGS. 10A-10C show comparisons of IFN-γ (FIG. 10A), TNF (FIG. 10B), and IL-6 (FIG. 10C) levels in NSG-SGM3 mice and NSG-SGM3×IL15 mice engrafted with 1×10^6 or 2×10^6 human PBMCs per mouse, with two different doses of irradiation (150 and 175 cGy).
NSG-SGM3×IL15 and NSG-SGM3 mice humanized with human PBMCs and then dosed with various drugs to induce cytokine release syndrome (CRS). Briefly, the mice were irradiated (100 cGy) and administered PBS, OKT3, Anti-CD28, or a CD19×CD3 BiTE.
The use of lower levels of PBMCs for humanization was also tested. Briefly, NSG-SGM3×IL15 and NSG-SGM3 mice were irradiated (150 cGy or 175 cGy) and administered human PBMCs intravenously (1×10^6/mouse or 2×10^6/mouse) on day 0. On day 12, mice were dosed with PBS or OKT3 and serum cytokine levels were analyzed.

Take “OKT3: drug dosed to induce cytokine release syndrome; known to induce cytokine release”: the “serum cytokine levels (TNF, IL-6, IL-2)” value (NSG-SGM3×IL15 mice as compared to NSG-SGM3 mice, irradiated 100 cGy, 5×10^6 human PBMCs per mouse, FIGS. 9A-9C) was “higher cytokine levels”. Further, the “serum cytokine levels (IFN-γ, TNF, IL-6)” value (irradiated 150 cGy or 175 cGy, 1×10^6 or 2×10^6 human PBMCs per mouse, dosed on day 12, drug vs PBS control, FIGS. 10A-10C) is “greater difference between the drug (OKT3) and control (PBS)”.
